Data on one molecule can be found in paper PMC2614274.

The target in this series is T1, DNA polymerase III alpha subunit (PolIIIα), exonuclease-deficient (Thermus aquaticus, UniProt Q9XDH5 1-1220, D20N;D212N).
T1 sequence: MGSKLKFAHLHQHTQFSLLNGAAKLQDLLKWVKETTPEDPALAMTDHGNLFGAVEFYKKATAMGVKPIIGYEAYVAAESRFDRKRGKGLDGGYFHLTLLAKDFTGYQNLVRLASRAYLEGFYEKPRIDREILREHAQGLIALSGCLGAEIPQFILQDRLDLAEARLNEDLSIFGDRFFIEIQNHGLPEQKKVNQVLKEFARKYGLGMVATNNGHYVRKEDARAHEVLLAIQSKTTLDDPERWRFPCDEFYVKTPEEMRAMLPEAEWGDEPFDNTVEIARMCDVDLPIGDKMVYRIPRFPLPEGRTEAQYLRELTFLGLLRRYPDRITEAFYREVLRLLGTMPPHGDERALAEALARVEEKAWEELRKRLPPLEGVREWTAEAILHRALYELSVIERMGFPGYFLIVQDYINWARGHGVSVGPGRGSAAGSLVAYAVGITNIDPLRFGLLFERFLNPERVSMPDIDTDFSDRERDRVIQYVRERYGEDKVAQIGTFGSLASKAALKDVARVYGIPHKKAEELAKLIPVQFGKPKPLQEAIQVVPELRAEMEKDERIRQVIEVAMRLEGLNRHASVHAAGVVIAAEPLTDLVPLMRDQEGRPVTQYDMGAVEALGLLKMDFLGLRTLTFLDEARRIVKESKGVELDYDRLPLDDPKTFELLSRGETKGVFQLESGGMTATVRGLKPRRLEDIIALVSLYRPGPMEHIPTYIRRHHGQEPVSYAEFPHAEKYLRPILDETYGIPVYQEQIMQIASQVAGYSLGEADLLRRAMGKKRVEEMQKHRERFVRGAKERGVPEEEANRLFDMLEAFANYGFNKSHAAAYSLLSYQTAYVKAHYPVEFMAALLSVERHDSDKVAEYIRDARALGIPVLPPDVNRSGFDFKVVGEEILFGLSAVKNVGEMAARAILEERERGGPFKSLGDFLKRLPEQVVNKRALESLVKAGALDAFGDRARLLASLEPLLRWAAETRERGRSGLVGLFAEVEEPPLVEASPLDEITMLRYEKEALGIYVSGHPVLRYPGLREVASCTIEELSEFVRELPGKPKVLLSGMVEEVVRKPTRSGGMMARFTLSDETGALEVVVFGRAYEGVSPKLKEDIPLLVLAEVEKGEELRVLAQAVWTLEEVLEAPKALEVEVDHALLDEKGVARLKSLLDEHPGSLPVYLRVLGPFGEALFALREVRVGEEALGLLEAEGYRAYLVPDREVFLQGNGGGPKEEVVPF
The experiment in a line: X-ray crystallography.

B1: primer-template DNA, ddC-terminated primer (dsDNA)
DNA 1: CGAAACGACGGCCAGTGCCAC
DNA 2: TTTTTTGTGGCACTGGCCGTCGTTTCG
modifications: 2',3'-dideoxycytidine at primer 3' end (incorporated in situ by the polymerase)
In the case of B1, the binding result was “binds”.
